Data published in the supplement of paper PMC9170038.

System: K4 kissing-loop RNA reporter
Test: apparent KD of K4 kissing-loop reporter; higher = weaker reporter binding
Details: Eterna round: R107; input ligand: theophylline 20 uM
Method: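 RNA-MaP round R107: designed RNA switches with theophylline, tryptophan, arginine or FMN aptamers are transcribed on-chip within common flanks. They are titrated with a labelled K4 kissing-loop RNA reporter in RNA-MaP buffer (100 mM Tris pH 7.5, 80 mM KCl, 4 mM MgCl2), without ligand or with the indicated ligand. Median apparent KD per design.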
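Further: bound reporter read as fluorescence of individual clusters on recovered sequencing chips by microscopy, with normalized cluster intensities fitted with a binding model.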

Sequence	apparent KD of K4 kissing-loop reporter [nM]
UGGAGUUGACGAAAAGUCAACUCCAGAGAAGGAGCGGACGAAAGUCCAGGUAGGUCGCUCACUACCAGUGAUGUUGGUACUUAAA	137
CAUAGGAAACUAUGUUUCUCUCUUACUGAAGGAGCGCGUGAAAACGCAGGUAGGUCGCAGAAUUUGAGAGUGAUGUUCUCAUUAA [Ex Arginine A K4 14]	201
AAUAAAAUCACGGCCGCCACUGAUUAUUUUAUUAGGAGUGAUGUUCCUAUGACAGUAUGCCUUAACAGGACCGGGUGAAUAUUUA [#19 K4 Tryptophan B Exclusion]	143
GCGUAGGAAGAAGGAUAUCACAGGAUGCCACGUUAGUGAUGUUAAUUUGGUUCAGCGCGAUUCUGAUGAGAAGGUCUUUUAUGAU [theeternabot_sameState_KL_FMN_B_47]	205
GUGGUGGUGGCGGCCGCCACUGAAGAUAAUGAGUGAUGUUCAAGUGAUGUUAAUAAGAACAGUAUCAGGACCGGGCCACCACCAC [Default title]	25.4
CUCACGCUCACAGAUACCAGUGGUGAUCCGGAUUGUAGUGAUGUUAAUUCCGCCAUCAUACACCCUUGGCAGCUGGCGUCACCUU [theeternabot_sameState_KL_Theo_B_31]	871
GGUGUGCCAAGUGAUGUUUGGCGUUCUCACCGAGGACCGGUACGGCCGCCACUCGUUAACUGACCAAGUAUCUUUACCUCGGAGA [theeternabot_sameState_KL_Trp_A_8]	187
CUGUACAUCUCGGCCGCCACUGACCUAAGUGAUGUUAGGAAUGAAACCUAGUGAUGUUAGCAAACCAGGACCGGGAGGUGUGCAG [KL-SSTryp-B4 #Double Kiss]	40.2
GUCUCGAGUGAUGUUCGGGUCGUUUGGGAAGGAGCGCCCGGAAGGGCAGGUAGGUCGCCCGGACCGCGCGGGCAACCGCGCGGCC [#2 Same State - Arginine A Attempt #12 (HarryS)]	212
UGACUGGAUGGAAGGAGCGCUAAACUCCUAGUGAUGUUAGGGACACGAGACAAAGUCUCGAAGCAGGUAGGUCGCCAUCUAGUCU [FiskerMod 13 - Jieux - Same State - Arginine B]	352
ACGGAUACGCGAGAUACCAGAGGCAUUCGCCAGCGACCAUAAUGUCCCGAGAGUGAUGUUCUCCCUUGGCAGCUCAUGGUUAAUU [theeternabot_exclusion_KL_Theo_B_2]	570

Same assay, conditions: Eterna round: R107; input ligand: tryptophan 2.4 mM

Sequence	apparent KD of K4 kissing-loop reporter [nM]
GCGUCACGUCGGGAUACCAGAGAAAUGGCAUUAGCCAAUGACGAGUGAUGUUCGUAGGCGCUCCCUUGGCAGCCCACCGGGAGGA [theeternabot_sameState_KL_Theo_B_21]	278
GCCGUAGAUUGAAGGAGCGGUGAAUGCAGGUGAGUCCUUUAGAUGUUUAGUGAUGUUAAACACCAGGUAGGUCGCAAUCUACGGC	192
GGUAGCUAGGCAGGAUAUAGCUAGUGGAGUGAUGUUCCACCAUACACGAGUGAUGUUCGUAACCUGCUAGAAGGGCCUAGCUACC	138
GGCGGCCGCGCGCAAGCGCGGCCGGCCGAUACCAGCGCGACGGCGCGCCCUUGGCAGCGGCGCCGAGUGAUGUUCGGCCUGCCGG [#2 Same State - Theophylline A Attempt #16 (HarryS)]	482
UUUUUUAGUUGAGUUAUACAUAGCGGACUAUAGGAUAUCUAGAAAUAGAGAAGGAUAAGAGUGAUGUUCUUAUUCAACUAUAGUG	91.6
GGACAACUAUGUCCCAUACAAACAAGAGAUACCAGCCAUCAUAGAGGCCCUUGGCAGCUCAUAUAAUCCAGUGAUGUUGGAUUUC [Atgebeus]	148
AAUGUGCAGGGAAGGAGCGUAGUCCAGUGAUGUUGGAGUUAAAUACCAGUGAUGUUGGUUAUACAGGUAGGUCGCCCUAAAGCGC [Exclusion Arginine B Gf 5]	71
GAACGAGUGAUGUUCGUUAUUAUGCAUUCCGAGGAUAUGGGAUUAGCCAGAAGGCGGAAUCAAUCUUCGAGUGAUGUUCGAAGAU [Same State FMN A GF 11]	136
ACGCGCGAGACGGCCGCCACUAUACGUCGAGUGAUGUUCGAGCCAAGAUGUCGUUACGUUUAUAAUAGGACCGGGUCAAUGGAUU [theeternabot_sameState_KL_Trp_B_19]	513
CGUGAGUGCCGACGGUCAUCGGUCCAUGCACGAGGACCGGUACGGCCGCCACUCGAGCGUGGCAGUGAUGUUGCCAGCGCACUAA [Oninvexece]	85.6
CGGGAAUUAGGUAUCGUCGAAAGCAAGAACCGAGGACCGGUACGGCCGCCACUCGCACCAGUGAUGUUGGUACAUUUGGUAUCCG [theeternabot_sameState_KL_Trp_A_31]	132
UGAUACCAGACGGCCGCCACUAGGACCGGGAGUGAUGUUCCGAAAAUUAAAUGCUCGGCCGCCACUAGGACCGGGUCUGGUAUCU [TrypBX 28 #DoubleAptamer #SwitchBubble]	128
AAUUUAUUAACUGAUACCAGACUUAAUAAAUUGUAAAUUACUAGUGAUGUUAGUGAAUUUGUCCCUUGGCAGCAGUAUUUAUUAA [JR_ExcTheophyB_Sub009]	106
AAAACUCGGUAGUGAUGUUAUUGAGUGAACAAGGAUAUCUAUGAUAAGAGAAGGUGUAAGUUAAGCGUAUUUCGGCCUGUACAAU [theeternabot_sameState_KL_FMN_A_34]	103
AAAAUUAAGGCCGAAUUAACUUCUUGCAUACGAGGACCGGUACGGCCGCCACUCGAGUCAAGUGAUGUUUGACAAUCUAUUAUUA [JR_ExcTryptoA_Sub010]	128
UGUCAUUGGUCGGCCGCCACUAGAAGGUCAAAGACCAUAGAGUGAUGUUCUAAGACGAAAGUCACUAGGACCGGGACCGAUGACU [TrypBS 1 #SwitchBubble #K4Middle]	207
AAGUGUGUGGCGGCCGCCACUAGAAUCCAGUGAUGUUGGAGUAAUCAAAUAAAUGAUAAUCAACAUAGGACCGGGCCAUAUAGAA [Same State - Tryptophan B (Freestyle 3)]	309
UGUACCGAGUCAGGAUAUGGCGUCGAAAGACGAAUUCUAGUGAUGUUAGGGAUCUGCGAAAGCAGUCCAGAAGGGACUUGGUACU [FmnBS 26 U36]	542
UAACUUGCAGUGAUGUUGCAAGAACUGGAUACCAGCAUGGAAACAUGCCCUUGGCAGCCAGAAGGUAUCCUCUGCAAGAGAUACA [Design1]	292
GGAUAGGAAAGAGGAUAUGGGCUAGGCAAGAAUAACUUGUCUAGCAAAUCCAUGAGGAGUGAUGUUCCAGAAGGCUUUCCUAUCG [FmnBX 1 A9+U77]	126
AAACAUUGGUCUGAUACCAGUUAGACCGAUAGGUCAAAACUGGAGUGAUGUUCCUAAAAUAACCCUUGGCAGCAGACCGAUGAAA [MAT - Same State Theophlline B - Mod of Eli - D4]	552

Sequence	apparent KD of K4 kissing-loop reporter [nM]
CGUUUAUAGCAGGAUACCAGUACCCAUAAAGUACGUUAAUAGUAGAGUGAUGUUCUAAAGUACCCUUGGCAGCUUCCCGUGACCG [ExTheophylB.V]	83.3
CGAAGACUUAUGGAUACCAGCCUAGCAUCAGGUGGUUCAGAGGCAUGCAGUGAUGUUGCAGGCCCUUGGCAGCCAUGGUACUAGA [Xelebi]	79.7
AAGUGUGUGGCGGCCGCCACUAGUAUCCAGUGAUGUUGGAGAUAUCACGUAAGUGAUAUCCAACAUAGGACCGGGCCAUAUAGAA [Same State - Tryptophan B (Freestyle 17)]	93.1
GCGCGCGGCGGAGGAUAUAGCAGGUGAUCCAAGAAAGUGAGUGAUGUUUAUGGAGAUGAUGAUAUGUUAGAAGGCCGCCGCGCGC [abcdefghijklmnopqrstu]	474
CGUUUAUAGCAGGAUACCAGUACCCAUAAAGUACGUUAAUAGUAGAGUGAUGUUCUAAAGUACCCUUGGCAGCUUCGAGUGAGUG [ExTheophylB.R]	54
GGACCUCAGUGAUGUUGAGGUAACGCUGAUACCAGUGACUUAAUUCGCCCUUGGCAGCAGUCCACCGAGGUAUCUGAUUAGGUCU [Default title]	139
AAAAUAAACUAGUGAUGUUGGUGUCCAGAUACCAGCGACGAAAGUCGCCCUUGGCAGCUGUGGACGUACAAAAUAAGUACGUCCU [MatMod 21 - Jieux - Same State - Theophylline A]	289
AAAAUUGCGGUCGAAAGAACUUCUUGCAUACGAGGACCGGUACGGCCGCCACUCGAGUCAAGUGAUGUUUGAUAAUCUAUUAUUA [JR_ExcTryptoA_Sub012]	212
UUUAUUUUCUGAGGAUAUCGUUUUACUGAAGUGAUGUUUCAGUAUUUUCAUAUUAUAUAUAAUUUUCGAGAAGGCAGUAUUAUUA [JR_Nu_SSFMNB_Sub027]	64.3
UAUUUAGUGACGGCCGCCACUAUUGUGAUUUAAUUGUUUGAGUGAUGUUUUGAUGUUUGAUUUUGUAGGACCGGGUUAUGUGUUA [tyttmullin]	749
UGGAGUUGACGAAAAGUCAACUCCAGAGAAGGAGCGGACGAAAGUCCAGGUAGGUCGCUCACUACCAGUGAUGUUGGUACUUAAA	139
CAUAGGAAACUAUGUUUCUCUCUUACUGAAGGAGCGCGUGAAAACGCAGGUAGGUCGCAGAAUUUGAGAGUGAUGUUCUCAUUAA [Ex Arginine A K4 14]	127
AAUAAAAUCACGGCCGCCACUGAUUAUUUUAUUAGGAGUGAUGUUCCUAUGACAGUAUGCCUUAACAGGACCGGGUGAAUAUUUA [#19 K4 Tryptophan B Exclusion]	156
GCGUAGGAAGAAGGAUAUCACAGGAUGCCACGUUAGUGAUGUUAAUUUGGUUCAGCGCGAUUCUGAUGAGAAGGUCUUUUAUGAU [theeternabot_sameState_KL_FMN_B_47]	210
GUGGUGGUGGCGGCCGCCACUGAAGAUAAUGAGUGAUGUUCAAGUGAUGUUAAUAAGAACAGUAUCAGGACCGGGCCACCACCAC [Default title]	33.8
CUCACGCUCACAGAUACCAGUGGUGAUCCGGAUUGUAGUGAUGUUAAUUCCGCCAUCAUACACCCUUGGCAGCUGGCGUCACCUU [theeternabot_sameState_KL_Theo_B_31]	715
GGUGUGCCAAGUGAUGUUUGGCGUUCUCACCGAGGACCGGUACGGCCGCCACUCGUUAACUGACCAAGUAUCUUUACCUCGGAGA [theeternabot_sameState_KL_Trp_A_8]	156
CUGUACAUCUCGGCCGCCACUGACCUAAGUGAUGUUAGGAAUGAAACCUAGUGAUGUUAGCAAACCAGGACCGGGAGGUGUGCAG [KL-SSTryp-B4 #Double Kiss]	51.8
GUCUCGAGUGAUGUUCGGGUCGUUUGGGAAGGAGCGCCCGGAAGGGCAGGUAGGUCGCCCGGACCGCGCGGGCAACCGCGCGGCC [#2 Same State - Arginine A Attempt #12 (HarryS)]	192
UGACUGGAUGGAAGGAGCGCUAAACUCCUAGUGAUGUUAGGGACACGAGACAAAGUCUCGAAGCAGGUAGGUCGCCAUCUAGUCU [FiskerMod 13 - Jieux - Same State - Arginine B]	166
ACGGAUACGCGAGAUACCAGAGGCAUUCGCCAGCGACCAUAAUGUCCCGAGAGUGAUGUUCUCCCUUGGCAGCUCAUGGUUAAUU [theeternabot_exclusion_KL_Theo_B_2]	385
